Substrate: Nc1ccccc1C(=O)C[C@H](N)C(=O)O
Settings: Pseudomonas fluorescens
Description: Compound was evaluated for its binding affinity against kynureninase isolated from Pseudomonas fluorescence

B1: Kynureninase (Homo sapiens), Q16719 (protein)
chain: MEPSSLELPADTVQRIAAELKCHPTDERVALHLDEEDKLRHFRECFYIPKIQDLPPVDLSLVNKDENAIYFLGNSLGLQPKMVKTYLEEELDKWAKIAAYGHEVGKRPWITGDESIVGLMKDIVGANEKEIALMNALTVNLHLLMLSFFKPTPKRYKILLEAKAFPSDHYAIESQLQLHGLNIEESMRMIKPREGEETLRIEDILEVIEKEGDSIAVILFSGVHFYTGQHFNIPAITKAGQAKGCYVGFDLAHAVGNVELYLHDWGVDFACWCSYKYLNAGAGGIAGAFIHEKHAHTIKPALVGWFGHELSTRFKMDNKLQLIPGVCGFRISNPPILLVCSLHASLEIFKQATMKALRKKSVLLTGYLEYLIKHNYGKDKAATKKPVVNIITPSHVEERGCQLTITFSVPNKDVFQELEKRGVVCDKRNPNGIRVAPVPLYNSFHDVYKFTNLLTSILDSAETKN
Km: 25.6 µM

Reference: ChEMBL document CHEMBL1129705, “Synthesis of phosphinic acid transition state analogues for the reaction catalysed by kynureninase” (Bioorg Med Chem Lett, 1996)
